Key:
Experiment in all cases: cell-based or functional assay
[1] = molecular target: HIV-1 Env pseudovirus 6244_13_B5_4576 (HIV-1)
[2] = molecular target: HIV-1 Env pseudovirus 7030102001E5(Rev-) (HIV-1)
[3] = molecular target: HIV-1 Env pseudovirus HIV-16845-2.22 (HIV-1)
[4] = molecular target: HIV-1 Env pseudovirus SC05_8C11_2344 (HIV-1)
[5] = molecular target: HIV-1 Env pseudovirus Ce0682_E4 (HIV-1)
[6] = molecular target: HIV-1 Env pseudovirus Ce1172_H1 (HIV-1)
[7] = molecular target: HIV-1 Env pseudovirus THRO4156.18 (HIV-1)
[8] = molecular target: HIV-1 Env pseudovirus ZM247v1(Rev-) (HIV-1)
[9] = molecular target: HIV-1 Env pseudovirus Ce2010_F5 (HIV-1)
[10] = molecular target: HIV-1 Env pseudovirus ZM233M.PB6 (HIV-1)
[11] = molecular target: HIV-1 Env pseudovirus SC422661.8 (HIV-1)
[12] = molecular target: Env of HIV-1 pseudovirus PVO.4 (HIV-1)
[13] = molecular target: Env of HIV-1 pseudovirus BF1266.431a (HIV-1)
[14] = molecular target: Env of HIV-1 pseudovirus Du422.1 (HIV-1)
[15] = molecular target: Env of HIV-1 pseudovirus TRO.11 (HIV-1)
[16] = molecular target: Env of HIV-1 pseudovirus 1056_10_TA11_1826 (HIV-1)
[17] = molecular target: Env of HIV-1 pseudovirus CNE52 (HIV-1)
[18] = molecular target: Env of HIV-1 pseudovirus WITO4160.33 (HIV-1)
[19] = molecular target: Env of HIV-1 pseudovirus Ce0682_E4 (HIV-1)
[20] = molecular target: Env of HIV-1 pseudovirus 928-28 (HIV-1)
[21] = molecular target: Env of HIV-1 pseudovirus REJO4541.67 (HIV-1)
[22] = molecular target: Env of HIV-1 pseudovirus 6244_13_B5_4576 (HIV-1)
[23] = molecular target: Env of HIV-1 pseudovirus Ce703010054_2A2 (HIV-1)
[24] = molecular target: Env of HIV-1 pseudovirus Ce1086_B2 (HIV-1)
[25] = molecular target: Env of HIV-1 pseudovirus ZM233M.PB6 (HIV-1)
[26] = molecular target: Env of HIV-1 pseudovirus 191084 B7-19 (HIV-1)
[27] = molecular target: Env of HIV-1 pseudovirus CNE53 (HIV-1)
[28] = molecular target: Env of HIV-1 pseudovirus MS208.A1 (HIV-1)
[29] = molecular target: HIV-1 Env pseudovirus T251-18 (HIV-1)
[30] = molecular target: HIV-1 Env pseudovirus 0815.v3.c3 (HIV-1)
[31] = molecular target: HIV-1 Env pseudovirus X1632_S2_B10 (HIV-1)
[32] = molecular target: HIV-1 Env pseudovirus 3817.v2.c59 (HIV-1)
[33] = molecular target: HIV-1 Env pseudovirus 3016.v5.c45 (HIV-1)
[34] = molecular target: HIV-1 Env pseudovirus CNE5 (HIV-1)
[35] = molecular target: HIV-1 Env pseudovirus X1254_c3 (HIV-1)
[36] = molecular target: HIV-1 Env pseudovirus 6041.v3.c23 (HIV-1)
[37] = molecular target: HIV-1 Env pseudovirus 6540.v4.c1 (HIV-1)

Question: How did the IC50 [1] turn out when N49P7.2 (antibody) was run?
Answer: 0.331 µg/mL

Question: And the IC80 [1]?
Answer: 1.04 µg/mL

Question: And the MPI [1]?
Answer: 100

Question: And the IC50 [2]?
Answer: 0.313 µg/mL

Question: What about the IC80 [2] of the same substance?
Answer: 1.03 µg/mL

Question: And the MPI [2]?
Answer: 100

Question: And the IC50 [3]?
Answer: 3.91 µg/mL

Question: What about the IC80 [3] of the same substance?
Answer: 18.2 µg/mL

Question: And the MPI [3]?
Answer: 98

Question: And the IC50 [4]?
Answer: 0.326 µg/mL

Question: What about the IC80 [4] of the same substance?
Answer: 1.14 µg/mL

Question: And the MPI [4]?
Answer: 100

Question: What about the IC50 [5] of the same substance?
Answer: 0.067 µg/mL

Question: What about the IC80 [5] of the same substance?
Answer: 0.233 µg/mL

Question: What about the MPI [5] of the same substance?
Answer: 100

Question: What about the IC50 [6] of the same substance?
Answer: > 50 µg/mL

Question: And the IC80 [6]?
Answer: > 50 µg/mL

Question: What about the MPI [6] of the same substance?
Answer: 6

Question: And the IC50 [7]?
Answer: 6.29 µg/mL

Question: What about the IC80 [7] of the same substance?
Answer: 33.3 µg/mL

Question: And the MPI [7]?
Answer: 94

Question: What about the IC50 [8] of the same substance?
Answer: 0.177 µg/mL

Question: And the IC80 [8]?
Answer: 2.5 µg/mL

Question: What about the MPI [8] of the same substance?
Answer: 96

Question: What about the IC50 [9] of the same substance?
Answer: 0.398 µg/mL

Question: And the IC80 [9]?
Answer: 1.29 µg/mL

Question: And the MPI [9]?
Answer: 100

Question: And the IC50 [10]?
Answer: 0.475 µg/mL

Question: And the IC80 [10]?
Answer: 2.14 µg/mL

Question: What about the MPI [10] of the same substance?
Answer: 99

Question: And the IC50 [11]?
Answer: 0.119 µg/mL

Question: What about the IC80 [11] of the same substance?
Answer: 0.564 µg/mL

Question: And the MPI [11]?
Answer: 100

Question: 10-1074 (antibody) was tested. Which IC50 [12] did it give?
Answer: 0.074 µg/mL

Question: What about the IC80 [12] of the same substance?
Answer: 0.36 µg/mL

Question: What about the IC50 [13] of the same substance?
Answer: > 50 µg/mL

Question: And the IC80 [13]?
Answer: > 50 µg/mL

Question: And the IC50 [14]?
Answer: 0.045 µg/mL

Question: What about the IC80 [14] of the same substance?
Answer: 0.166 µg/mL

Question: What about the IC50 [15] of the same substance?
Answer: 0.008 µg/mL

Question: What about the IC80 [15] of the same substance?
Answer: 0.057 µg/mL

Question: And the IC50 [16]?
Answer: 0.038 µg/mL

Question: What about the IC80 [16] of the same substance?
Answer: 0.272 µg/mL

Question: And the IC50 [17]?
Answer: 1.23 µg/mL

Question: What about the IC80 [17] of the same substance?
Answer: 13.1 µg/mL

Question: What about the IC50 [18] of the same substance?
Answer: 0.185 µg/mL

Question: What about the IC80 [18] of the same substance?
Answer: 2.11 µg/mL

Question: What about the IC50 [19] of the same substance?
Answer: > 50 µg/mL

Question: What about the IC80 [19] of the same substance?
Answer: > 50 µg/mL

Question: What about the IC50 [20] of the same substance?
Answer: 0.847 µg/mL

Question: And the IC80 [20]?
Answer: 4.7 µg/mL

Question: What about the IC50 [21] of the same substance?
Answer: > 50 µg/mL

Question: What about the IC80 [21] of the same substance?
Answer: > 50 µg/mL

Question: And the IC50 [22]?
Answer: 0.202 µg/mL

Question: And the IC80 [22]?
Answer: 0.922 µg/mL

Question: And the IC50 [23]?
Answer: > 50 µg/mL

Question: What about the IC80 [23] of the same substance?
Answer: > 50 µg/mL

Question: What about the IC50 [24] of the same substance?
Answer: > 50 µg/mL

Question: And the IC80 [24]?
Answer: > 50 µg/mL

Question: What about the IC50 [25] of the same substance?
Answer: 0.06 µg/mL

Question: What about the IC80 [25] of the same substance?
Answer: 0.349 µg/mL

Question: And the IC50 [26]?
Answer: 0.032 µg/mL

Question: What about the IC80 [26] of the same substance?
Answer: 0.128 µg/mL

Question: What about the IC50 [27] of the same substance?
Answer: 0.039 µg/mL

Question: What about the IC80 [27] of the same substance?
Answer: 0.141 µg/mL

Question: What about the IC50 [28] of the same substance?
Answer: > 50 µg/mL

Question: What about the IC80 [28] of the same substance?
Answer: > 50 µg/mL

Question: Which results are given for VRC01 (antibody)?
Answer: IC50 (Titer in TZM.bl cells) [1]: 0.21 µg/mL; IC80 (Titer in TZM.bl cells) [1]: 0.53 µg/mL; IC80 (Titer in TZM.bl cells) [29]: 11.2 µg/mL; IC50 (Titer in TZM.bl cells) [2]: 0.54 µg/mL; IC80 (Titer in TZM.bl cells) [2]: 2.08 µg/mL; IC50 (Titer in TZM.bl cells) [3]: 2.8 µg/mL; IC80 (Titer in TZM.bl cells) [3]: 12.7 µg/mL; IC50 (Titer in TZM.bl cells) [4]: 0.64 µg/mL; IC80 (Titer in TZM.bl cells) [4]: 1.91 µg/mL; IC50 (Titer in TZM.bl cells) [30]: 0.06 µg/mL; IC80 (Titer in TZM.bl cells) [30]: 0.13 µg/mL; IC50 (Titer in TZM.bl cells) [31]: 0.12 µg/mL; IC80 (Titer in TZM.bl cells) [31]: 0.74 µg/mL; IC50 (Titer in TZM.bl cells) [5]: 0.08 µg/mL; IC80 (Titer in TZM.bl cells) [5]: 0.48 µg/mL; IC50 (Titer in TZM.bl cells) [32]: > 50 µg/mL; IC80 (Titer in TZM.bl cells) [32]: > 50 µg/mL; IC50 (Titer in TZM.bl cells) [33]: 0.16 µg/mL; IC80 (Titer in TZM.bl cells) [33]: 0.42 µg/mL; IC50 (Titer in TZM.bl cells) [34]: 0.37 µg/mL; IC80 (Titer in TZM.bl cells) [34]: 1.1 µg/mL; IC50 (Titer in TZM.bl cells) [6]: > 10 µg/mL; IC80 (Titer in TZM.bl cells) [6]: > 10 µg/mL; IC50 (Titer in TZM.bl cells) [35]: 0.07 µg/mL; IC80 (Titer in TZM.bl cells) [35]: 0.19 µg/mL; IC80 (Titer in TZM.bl cells) [7]: 23 µg/mL; IC50 (Titer in TZM.bl cells) [36]: 0.02 µg/mL; IC80 (Titer in TZM.bl cells) [36]: 0.08 µg/mL; IC50 (Titer in TZM.bl cells) [8]: 0.35 µg/mL; IC80 (Titer in TZM.bl cells) [8]: 1.29 µg/mL; IC50 (Titer in TZM.bl cells) [9]: 0.32 µg/mL; IC80 (Titer in TZM.bl cells) [9]: 1.07 µg/mL; IC50 (Titer in TZM.bl cells) [10]: 2 µg/mL; IC80 (Titer in TZM.bl cells) [10]: 9.3 µg/mL; IC50 (Titer in TZM.bl cells) [11]: 0.08 µg/mL; IC80 (Titer in TZM.bl cells) [11]: 0.265 µg/mL; IC50 (Titer in TZM.bl cells) [37]: > 50 µg/mL; IC80 (Titer in TZM.bl cells) [37]: > 50 µg/mL

Question: For PG16 (antibody), which IC50 [12] is on record?
Answer: 15.3 µg/mL

Question: And the IC80 [12]?
Answer: > 50 µg/mL

Question: And the IC50 [13]?
Answer: 0.003 µg/mL

Question: What about the IC80 [13] of the same substance?
Answer: 0.009 µg/mL

Question: What about the IC50 [14] of the same substance?
Answer: 0.261 µg/mL

Question: What about the IC80 [14] of the same substance?
Answer: 33.8 µg/mL

Question: And the IC50 [15]?
Answer: 1.92 µg/mL

Question: And the IC80 [15]?
Answer: 49.6 µg/mL

Question: What about the IC50 [16] of the same substance?
Answer: 0.315 µg/mL

Question: What about the IC80 [16] of the same substance?
Answer: 1.95 µg/mL

Question: And the IC50 [17]?
Answer: 0.009 µg/mL

Question: And the IC80 [17]?
Answer: 0.026 µg/mL

Question: What about the IC50 [18] of the same substance?
Answer: 0.002 µg/mL

Question: What about the IC80 [18] of the same substance?
Answer: 0.012 µg/mL

Question: What about the IC50 [19] of the same substance?
Answer: 0.026 µg/mL

Question: And the IC80 [19]?
Answer: 0.202 µg/mL

Question: What about the IC50 [20] of the same substance?
Answer: 0.034 µg/mL

Question: What about the IC80 [20] of the same substance?
Answer: 0.237 µg/mL

Question: And the IC50 [21]?
Answer: 0.039 µg/mL

Question: And the IC80 [21]?
Answer: 13.4 µg/mL

Question: What about the IC50 [22] of the same substance?
Answer: > 50 µg/mL

Question: What about the IC80 [22] of the same substance?
Answer: > 50 µg/mL

Question: What about the IC50 [23] of the same substance?
Answer: 0.008 µg/mL

Question: What about the IC80 [23] of the same substance?
Answer: 0.053 µg/mL

Question: What about the IC50 [24] of the same substance?
Answer: > 50 µg/mL

Question: And the IC80 [24]?
Answer: > 50 µg/mL

Question: What about the IC50 [25] of the same substance?
Answer: 0.002 µg/mL

Question: And the IC80 [25]?
Answer: 0.006 µg/mL

Question: What about the IC50 [26] of the same substance?
Answer: 0.024 µg/mL

Question: What about the IC80 [26] of the same substance?
Answer: 0.238 µg/mL

Question: What about the IC50 [27] of the same substance?
Answer: > 50 µg/mL

Question: And the IC80 [27]?
Answer: > 50 µg/mL

Question: And the IC50 [28]?
Answer: 0.002 µg/mL

Question: And the IC80 [28]?
Answer: 0.004 µg/mL

— US20240117018A1
